Results from US20240261423A1.

Target: Insulin
Assay: low stringency direct binding ELISA on coated insulin, antibody dilutions from 10 µg/mL

Chain of Insulin (P01308 25-54, chain 1 of 2): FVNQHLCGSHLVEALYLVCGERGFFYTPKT
Chain of Insulin (P01308 90-110, chain 2 of 2): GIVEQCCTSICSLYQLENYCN

Row | Polyreactivity Score | Substance
1 | 5.03 | Negative Control (polyreactivity assay) (antibody)
2 | 12.2 | Positive Control (polyreactivity assay) (antibody)
